Assay results from doi:10.1101/2023.08.25.554918 (bioRxiv, 2023).

Columns and labels:
Assay in all cases: SEC
[1] = biological target: Chimera 1 (Pfu1-Pfu2-Ton3) (Pyrococcus furiosus | Thermococcus onnurineus)
[2] = biological target: Chimera 2 (Pfu1-Ton2-Pfu3) (Pyrococcus furiosus | Thermococcus onnurineus)
[3] = biological target: Chimera 3 (Ton1-Ton2-Pfu3) (Thermococcus onnurineus | Pyrococcus furiosus)
[4] = biological target: Chimera 4 (Ton1-Pfu2-Ton3) (Thermococcus onnurineus | Pyrococcus furiosus)
[5] = biological target: Chimera 5 (Pfu1-Ton2-Ton3) (Pyrococcus furiosus | Thermococcus onnurineus)
[6] = biological target: Chimera 6 (Ton1-Pfu2-Pfu3) (Thermococcus onnurineus | Pyrococcus furiosus)
[7] = biological target: Domain 1 of PfuAmyGT (Pfu1) (Pyrococcus furiosus)
[8] = biological target: the molecule itself

Chimera 1 (Pfu1-Pfu2-Ton3) (enzyme)
stoichiometry N [1]: 2

Chimera 2 (Pfu1-Ton2-Pfu3) (enzyme)
stoichiometry N [2]: 2

Chimera 3 (Ton1-Ton2-Pfu3) (enzyme)
stoichiometry N [3]: 2

Chimera 4 (Ton1-Pfu2-Ton3) (enzyme)
stoichiometry N [4]: 2

Chimera 5 (Pfu1-Ton2-Ton3) (enzyme)
stoichiometry N [5]: 2

Chimera 6 (Ton1-Pfu2-Pfu3) (enzyme)
stoichiometry N [6]: 2

Domain 1 of PfuAmyGT (Pfu1) (domain or fragment)
stoichiometry N [7]: 4

B1: PfuAmyGT (Pfu1-Pfu2-Pfu3), GH57 4-α-glucanotransferase from Pyrococcus furiosus (enzyme)
chain: MGDKINFIFGIHNHQPLGNFGWVFEEAYEKCYWPFLETLEEYPNMKVAIHTSGPLIEWLQDNRPEYIDLLRSLVKRGQVEIVVAGFYEPVLASIPKEDRIEQIRLMKEWAKSIGFDARGVWLTERVWQPELVKTLKESGIDYVIVDDYHFMSAGLSKEELYWPYYTEDGGEVIAVFPIDEKLRYLIPFRPVDKVLEYLHSLIDGDESKVAVFHDDGEKFGIWPGTYEWVYEKGWLREFFDRISSDEKINLMLYTEYLEKYKPRGLVYLPIASYFEMSEWSLPAKQARLFVEFVNELKVKGIFEKYRVFVRGGIWKNFFYKYPESNYMHKRMLMVSKLVRNNPEARKYLLRAQCNDAYWHGLFGGVYLPHLRRAIWNNLIKANSYVSLGKVIRDIDYDGFEEVLIENDNFYAVFKPSYGGSLVEFSSKNRLVNYVDVLARRWEHYHGYVESQFDGVASIHELEKKIPDEIRKEVAYDKYRRFMLQDHVVPLGTTLEDFMFSRQQEIGEFPRVPYSYELLDGGIRLKREHLGIEVEKTVKLVNDGFEVEYIVNNKTGNPVLFAVELNVAVQSIMESPGVLRGKEIVVDDKYAVGKFALKFEDEMEVWKYPVKTLSQSESGWDLIQQGVSYIVPIRLEDKIRFKLKFEEASG
stoichiometry N [8]: 2
